Assay [1] concerns the target T1, chimeric human/cynomolgus monkey CD89-II on HEK293F cells (human/cynomolgus chimera, UniProt P24071 22-287).
T1 construct: also called dIle47 - Ile71 human EC1-CD89; II (47-71)
T1 chain: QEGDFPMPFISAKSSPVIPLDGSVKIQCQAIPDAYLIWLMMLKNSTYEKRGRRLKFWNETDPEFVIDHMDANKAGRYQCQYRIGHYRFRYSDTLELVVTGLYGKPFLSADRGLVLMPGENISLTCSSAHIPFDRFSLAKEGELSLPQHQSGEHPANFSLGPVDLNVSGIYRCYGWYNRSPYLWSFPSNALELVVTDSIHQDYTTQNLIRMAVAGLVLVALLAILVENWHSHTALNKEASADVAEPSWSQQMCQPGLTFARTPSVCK
Kind of assay: FACS, transiently transfected HEK293F. (In general: In flow cytometry, cells or beads pass a laser one at a time.)

Assay [2] addresses T2, membrane-bound full-length human CD89 on HEK293F cells (human, UniProt P24071 22-287).
T2 construct: 2 or transient transfectants; also called membrane human CD89; human FcaRI
Kind of assay: FACS on HEK293F-huCD89.
Experimental: Then, 10 µL/tube (i.e., 0.1 x 10⁶ cells) of these cells were incubated with 100 µL titrated (in PBS/BSA/NaN₃) purified mouse anti-human CD89 antibody/tube for 30 minutes at 4° C. […] After extensive washing in PBS/BSA/NaN₃, cells were subsequently incubated with 1:200 diluted PE-conjugated goat anti-mouse IgG Fcy-specific antibodies (Jackson ImmunoResearch) for 30 minutes at 4° C. After extensive washing in PBS/BSA/NaN₃, cells were fixed in 2% formaldehyde in PBS/BSA/NaN₃ for 30 minutes at 4° C.

Assay [3] addresses T3, chimeric bovine EC1-Fcgamma2R/human EC2-CD89 on HEK293F cells (bovine/human chimera).
T3 chain: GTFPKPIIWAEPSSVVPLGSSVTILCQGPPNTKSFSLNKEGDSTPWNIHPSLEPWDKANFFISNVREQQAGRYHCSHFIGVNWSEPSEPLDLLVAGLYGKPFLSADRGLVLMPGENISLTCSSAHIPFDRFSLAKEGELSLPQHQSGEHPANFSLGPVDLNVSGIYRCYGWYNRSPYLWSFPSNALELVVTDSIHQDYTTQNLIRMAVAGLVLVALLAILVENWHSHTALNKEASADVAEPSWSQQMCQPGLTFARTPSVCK
Kind of assay: FACS, transiently transfected HEK293F.
Experimental: To this end, transient transfected HEK293F cells were put at 10 × 10⁶ cells/mL in ice-chilled phosphate-buffered saline containing 0.1% BSA (Sigma)/0.05% NaN₃ (PBS/BSA/NaN₃) supplemented with 50 µg/mL human IgGs (blocking Fcy receptors; Sigma) for 10 minutes at 4° C. Then, 10 µL/tube (i.e., 0.1 × 10⁶ cells) of these cells were incubated with or without 100 µL purified mouse anti-human CD89 antibody at 10 µg/mL (in PBS/BSA/NaN₃) for 30 minutes at 4° C. […] After extensive washing in PBS/BSA/NaN₃, cells were subsequently incubated with 1:200 diluted PE-conjugated goat anti-mouse IgG Fcy-specific antibodies (Jackson ImmunoResearch) for 30 minutes at 4° C. After extensive washing in PBS/BSA/NaN₃, cells were fixed in 2% formaldehyde in PBS/BSA/NaN₃ for 30 minutes at 4° C.

For assay [4], the target named is T4, chimeric human/cynomolgus monkey CD89-IV on HEK293F cells (human/cynomolgus chimera, UniProt P24071 22-287).
T4 construct: also called dArg97 - Gly121 human EC1-CD89
T4 chain: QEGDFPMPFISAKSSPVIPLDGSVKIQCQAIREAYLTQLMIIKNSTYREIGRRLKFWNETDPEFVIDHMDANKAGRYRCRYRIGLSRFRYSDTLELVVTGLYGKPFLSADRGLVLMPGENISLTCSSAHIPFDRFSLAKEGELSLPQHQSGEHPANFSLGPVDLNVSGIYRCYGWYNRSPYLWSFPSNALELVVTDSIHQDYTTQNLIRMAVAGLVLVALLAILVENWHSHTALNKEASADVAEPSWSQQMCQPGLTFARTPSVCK
Briefly: FACS, 10 µg/mL, transiently transfected HEK293F.
Experimental: (§1) To this end, transient transfected HEK293F cells were put at 10 × 10⁶ cells/mL in ice-chilled phosphate-buffered saline containing 0.1% BSA (Sigma)/0.05% NaN₃ (PBS/BSA/NaN₃) supplemented with 50 µg/mL human IgGs (blocking FcY receptors; Sigma) for 10 minutes at 4° C. Then, 10 µL/tube (i.e., 0.1 × 10⁶ cells) of these cells were incubated with or without 100 µL purified mouse anti-human CD89 antibody at 10 µg/mL (in PBS/BSA/NaN₃) for 30 minutes at 4° C. […] After extensive washing in PBS/BSA/NaN₃, cells were subsequently incubated with 1:200 diluted PE-conjugated goat anti-mouse IgG Fcy-specific antibodies (Jackson ImmunoResearch) for 30 minutes at 4° C. After extensive washing in PBS/BSA/NaN₃, cells were fixed in 2% formaldehyde in PBS/BSA/NaN₃ for 30 minutes at 4° C.

The target in assay [5] is T5, chimeric human/cynomolgus monkey CD89-I on HEK293F cells (human/cynomolgus chimera, UniProt P24071 22-287).
T5 construct: also called dGln22 - Lys46 human EC1-CD89; I (22-46)
T5 chain: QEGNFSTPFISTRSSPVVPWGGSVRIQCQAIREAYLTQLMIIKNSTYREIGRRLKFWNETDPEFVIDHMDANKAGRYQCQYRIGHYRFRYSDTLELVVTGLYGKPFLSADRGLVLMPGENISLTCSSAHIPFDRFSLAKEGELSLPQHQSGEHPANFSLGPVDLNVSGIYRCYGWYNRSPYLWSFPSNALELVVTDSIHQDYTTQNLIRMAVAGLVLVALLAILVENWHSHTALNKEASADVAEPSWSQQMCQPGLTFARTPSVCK
Kind of assay: FACS, 10 µg/mL, transiently transfected HEK293F.
Experimental: as §1

The target in assay [6] is T6, chimeric human/cynomolgus monkey CD89-hotspots on HEK293F cells (human/cynomolgus chimera, UniProt P24071 22-287).
T6 construct: also called dThr58, Gln59; dArg73, Arg74, Lys76
T6 chain: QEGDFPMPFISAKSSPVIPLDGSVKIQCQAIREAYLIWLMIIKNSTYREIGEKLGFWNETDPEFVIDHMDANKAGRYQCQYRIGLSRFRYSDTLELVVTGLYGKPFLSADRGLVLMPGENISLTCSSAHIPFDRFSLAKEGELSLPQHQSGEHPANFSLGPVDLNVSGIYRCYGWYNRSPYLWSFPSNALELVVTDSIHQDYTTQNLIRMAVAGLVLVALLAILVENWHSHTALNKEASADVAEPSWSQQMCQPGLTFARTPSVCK
Kind of assay: FACS, 10 µg/mL, transiently transfected HEK293F.
Experimental: as §1

The target of assay [7] is T7, chimeric human/cynomolgus monkey CD89-III on HEK293F cells (human/cynomolgus chimera, UniProt P24071 22-287).
T7 construct: also called dGly72 - Gly96 human EC1-CD89; III (72-96)
T7 chain: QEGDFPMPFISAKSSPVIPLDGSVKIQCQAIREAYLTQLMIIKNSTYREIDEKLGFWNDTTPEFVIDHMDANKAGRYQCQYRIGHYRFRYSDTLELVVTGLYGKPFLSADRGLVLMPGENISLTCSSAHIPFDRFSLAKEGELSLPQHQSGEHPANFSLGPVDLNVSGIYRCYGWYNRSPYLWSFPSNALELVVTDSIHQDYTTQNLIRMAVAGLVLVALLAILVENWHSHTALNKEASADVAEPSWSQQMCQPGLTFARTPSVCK
Briefly: FACS, 10 µg/mL, transiently transfected HEK293F.
Experimental: as §1

For assay [8], the target named is T8, membrane full-length cynomolgus monkey CD89 on HEK293F cells (cynomolgus monkey).
T8 construct: also called cynoCD89; cynomolgus EC1-CD89
T8 chain: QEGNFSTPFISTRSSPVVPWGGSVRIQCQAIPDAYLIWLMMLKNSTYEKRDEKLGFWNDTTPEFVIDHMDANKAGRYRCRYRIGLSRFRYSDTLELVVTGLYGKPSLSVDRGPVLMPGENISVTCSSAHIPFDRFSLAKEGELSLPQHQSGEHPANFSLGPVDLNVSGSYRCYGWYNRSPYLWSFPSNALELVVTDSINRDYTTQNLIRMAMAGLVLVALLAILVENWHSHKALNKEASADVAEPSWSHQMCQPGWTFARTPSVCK
Briefly: FACS, transiently transfected HEK293F.
Experimental: To this end, transient transfected HEK293F cells were put at 10 x 10⁶ cells/mL in ice-chilled phosphate-buffered saline containing 0.1% BSA (Sigma)/0.05% NaN₃ (PBS/BSA/NaN₃) supplemented with 50 µg/mL human IgGs (blocking FcY receptors; Sigma) for 10 minutes at 4° C. Then, 10 µL/tube (i.e., 0.1 × 10⁶ cells) of these cells were incubated with or without 100 µL purified mouse anti-human CD89 antibody at 10 µg/mL (in PBS/BSA/NaN₃) for 30 minutes at 4° C. […] After extensive washing in PBS/BSA/NaN₃, cells were subsequently incubated with 1:200 diluted PE-conjugated goat anti-mouse IgG Fcy-specific antibodies (Jackson ImmunoResearch) for 30 minutes at 4° C. After extensive washing in PBS/BSA/NaN₃, cells were fixed in 2% formaldehyde in PBS/BSA/NaN₃ for 30 minutes at 4° C.

Assay [9] has as its target T2, membrane-bound full-length human CD89 …. Briefly: FACS HEK293F-huCD89, 10 ug/mL; competitor PE-MIP8a.
Experimental: (§2) Then, 10 µL/tube (i.e., 0.1 × 10⁶ cells) of these cells were incubated with or without 100 µL purified mouse anti-human CD89 antibody at 10 µg/mL (in PBS/BSA/NaN₃) for 30 minutes at 4° C. […] After extensive washing in PBS/BSA/NaN₃, cells were fixed in 2% formaldehyde in PBS/BSA/NaN₃ for 30 minutes at 4° C.
The target is the same in assay [10]. Briefly: FACS, antibody before secretory IgA on HEK293F-huCD89; IgA detected.
Experimental: Then, 10 µL/tube (i.e., 0.1 x 10⁶ cells) of these cells were incubated with or without 50 µL titrated (in PBS/BSA/NaN₃) purified mouse anti-human CD89 antibody/tube for 30 minutes at 4° C. […] After extensive washing in PBS/BSA/NaN₃, 1:200 diluted PE-conjugated streptavidin (Jackson ImmunoResearch) was added, and incubated for 30 minutes at 4° C. After extensive washing in PBS/BSA/NaN₃, cells were fixed in 4% formaldehyde in PBS/BSA/NaN₃ for 30 minutes at 4° C.
The target of assay [11] is T9, recombinant C-terminal polyhistidine-tagged human (extracellular) CD89 (Sino Biological) (human, UniProt P24071 22-227).
T9 construct: extracellular domain; bought protein; also called rhuCD89; soluble monomeric rhuCD89
Kind of assay: ELISA, coated rhuCD89.
Experimental: After extensive washing with PBS/0.05% Tween 20, plates were blocked with PBS/0.05% Tween 20/1% BSA (Roche) for 1 hour at RT. Subsequently, plates were incubated with 50 µL titrated (in block buffer) purified mouse anti-human CD89 antibody/well for 1 hour at RT. […] After extensive washing in PBS/0.05% Tween 20, binding of antibodies on rhuCD89 was determined with 1:5,000 diluted horseradish peroxidase (HRP)-conjugated goat anti-mouse IgG Fcy-specific antibodies (Jackson ImmunoResearch) for 1 hour at RT, followed by a ready-to-use solution of TMB substrate (Invitrogen) for colorimetric detection.
After extensive washing with PBS/0.05% Tween 20, plates were blocked with PBS/0.05% Tween 20/1% BSA (Roche) for 1 hour at RT. […] After extensive washing in PBS/0.05% Tween 20, binding of antibodies on rhuCD89 was determined with 1:5,000 diluted horseradish peroxidase (HRP)-conjugated goat anti-human IgG Fcy-specific antibodies (Jackson ImmunoResearch) for 1 hour at RT, followed by a ready-to-use solution of TMB substrate (Invitrogen) for colorimetric detection.

In assay [12] the target is T2, membrane-bound full-length human CD89 …. Kind of assay: FACS HEK293F-huCD89.
Experimental: After extensive washing in PBS/BSA/NaN₃, cells were subsequently incubated with 1:200 diluted PE-conjugated goat anti-human IgG Fcy-specific antibodies (Jackson ImmunoResearch) for 30 minutes at 4° C. After extensive washing in PBS/BSA/NaN₃, cells were fixed in 2% formaldehyde in PBS/BSA/NaN₃ for 30 minutes at 4° C.
Assay [13] has the same target. Briefly: FACS, antibody before serum IgA on HEK293F-huCD89; IgA detected.
Experimental: Then, 10 µL/tube (i.e., 0.1 x 10⁶ cells) of these cells were incubated with 50 µL titrated (in PBS/BSA/NaN₃) purified mouse anti-human CD89 antibody/tube for 30 minutes at 4° C. […] After extensive washing in PBS/BSA/NaN₃, 1:200 diluted PE-conjugated streptavidin (Jackson ImmunoResearch) was added, and incubated for 30 minutes at 4° C. After extensive washing in PBS/BSA/NaN₃, cells were fixed in 2% formaldehyde in PBS/BSA/NaN₃ for 30 minutes at 4° C.
In assay [14] the target is T9, recombinant C-terminal …. Kind of assay: ELISA, coated rhuCD89, supernatant. A general note: In an ELISA, binding on a coated surface is turned into a signal by an enzyme label.
Experimental: After extensive washing with PBS/0.05% Tween 20, plates were blocked with PBS/0.05% Tween 20/1% BSA (Roche) for 1 hour at RT. […] After extensive washing in PBS/0.05% Tween 20, binding of antibodies on rhuCD89 was determined with 1:5,000 diluted horseradish peroxidase (HRP)-conjugated goat anti-human IgG Fcγ-specific antibodies (Jackson ImmunoResearch) for 1 hour at RT, followed by a ready-to-use solution of TMB substrate (Invitrogen) for colorimetric detection. After adding 1 M HCL, binding (optical density) of antibodies on rhuCD89 was measured at wavelength of 450 nm (reference wavelength of 655 nm) using a microplate reader (Synergy HTX; BioTek).
Assay [15] has as its target T2, membrane-bound full-length human CD89 …. Briefly: FACS HEK293F-huCD89, supernatant.
Experimental: After extensive washing in PBS/BSA/NaN₃, cells were subsequently incubated with 1:200 diluted PE-conjugated goat anti-human IgG Fcγ-specific antibodies (Jackson ImmunoResearch) for 30 minutes at 4° C. After extensive washing in PBS/BSA/NaN₃, cells were fixed in 4% formaldehyde in PBS/BSA/NaN₃ for 30 minutes at 4° C.
In assay [16] the target is T9, recombinant C-terminal …. Kind of assay: ELISA, antibody before serum IgA on coated rhuCD89; IgA detected.
Experimental: After extensive washing with PBS/0.05% Tween 20, plates were blocked with PBS/0.05% Tween 20/1% BSA (Roche) for 1 hour at RT. Subsequently, plates were incubated with 25 µL titrated (in block buffer) purified mouse anti-human CD89 antibody/well for 30 minutes at RT. […] After extensive washing in PBS/0.05% Tween 20, 1:10,000 diluted HRP-conjugated streptavidin (Jackson ImmunoResearch) was added, and incubated for 1 hour at RT, followed by a ready-to-use solution of TMB substrate (Invitrogen) for colorimetric detection.
The target of assay [17] is T2, membrane-bound full-length human CD89 …. Kind of assay: FACS HEK293F-huCD89, 10 ug/mL; competitor PE-A3.
Experimental: as §2
For assay [18] the target is unchanged. Briefly: FACS HEK293F-huCD89, 10 ug/mL; competitor PE-A59.
Experimental: as §2
For assay [19] the target is unchanged. Briefly: FACS, unlabelled antibody before MIP8a-PE on HEK293F-huCD89.
For assay [20], the target named is membrane human CD89 on ex vivo primary human neutrophilic granulocytes or monocytic U937 cells (human, UniProt P24071 22-287). Briefly: cell-based or functional assay.

Where only a bound is given, the exact number is not on record here.

B1: CD89/IgA blocking mouse anti-human CD89-specific antibody 20B4 (antibody, V domains shown)
VH: QVQLKESGPGLVAPSQSLSITCTVSGFSLTSYGVHWVRQPPGKGLEWLGIIWAGGSTSYNSALMSRLSISKDNSKSQVFLKMNSLQTDDTAMYYCARDHYDLFAYWGQGTLVTVSA
VL: DILMTQSPSSMSVSLGDTVSITCHASQDISRNIGWLQQKPGKSFKGLIYHGTNLEDGVPSRFSGSGSGADYSLTISSLESEDFADYYCVQYAQFPRTFGGGTKLEIK
Usually EC50 (read off the curve) stands for the concentration that produces a half-maximal response. One may read the EC50 as the midpoint of the concentration-response curve. Regarding B1, the binding result in assay [1] is “no binding (tested: 10 µg/mL)”; in assay [3], “no binding (tested: 10 µg/mL)”; in assay [4], “binds”; in [5], “binds”; in assay [6], “binds”; in assay [7], “binds”. Besides, in assay [8], the binding result is on record as “no binding (tested: 10 µg/mL)”. Also, the “EC50 (read off the curve)” value in assay [2] was around 0.2 mg/L. Further, in [9], the “% blocking of PE-MIP8a binding” value is below 25%. Also, the “IC50 (read off the curve)” value was around 0.4 mg/L in assay [10] and around 0.3 mg/L in assay [13]. In addition, the EC50 is 0.013 mg/L in assay [11] and 0.26 mg/L in [12].

B2: humanized IgG4/kappa anti-human CD89 monoclonal antibody 10E7 version VH3VL3 (antibody)
heavy: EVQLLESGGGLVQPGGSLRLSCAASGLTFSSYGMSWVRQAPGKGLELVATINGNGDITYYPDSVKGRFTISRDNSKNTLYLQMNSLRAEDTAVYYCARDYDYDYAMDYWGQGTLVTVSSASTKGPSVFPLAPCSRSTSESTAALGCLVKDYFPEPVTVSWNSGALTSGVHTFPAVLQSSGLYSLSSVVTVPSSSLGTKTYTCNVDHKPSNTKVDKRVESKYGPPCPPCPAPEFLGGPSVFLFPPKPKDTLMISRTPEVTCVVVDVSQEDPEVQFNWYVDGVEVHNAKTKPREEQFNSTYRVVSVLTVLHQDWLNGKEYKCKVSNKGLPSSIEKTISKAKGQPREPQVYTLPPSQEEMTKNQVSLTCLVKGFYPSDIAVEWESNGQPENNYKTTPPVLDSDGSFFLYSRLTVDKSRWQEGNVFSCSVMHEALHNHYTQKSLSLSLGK
light: DIQMTQSPSSLSASVGDRVTITCRASQDIINYLNWYQQKPGKAVKLLIYYTSRLHSGVPSRFSGSGSGTDYTLTISSLQPEDFATYYCQQGKTLPYTFGQGTKLEIKRTVAAPSVFIFPPSDEQLKSGTASVVCLLNNFYPREAKVQWKVDNALQSGNSQESVTEQDSKDSTYSLSSTLTLSKADYEKHKVYACEVTHQGLSSPVTKSFNRGEC
notes: tested as supernatant; signal peptide end derived as for m17
With B2, the EC50 in [14] was around 0.02 mg/L; in assay [15], around 1 mg/L.

B3: humanized IgG4/kappa anti-human CD89 monoclonal antibody 10E7 version VH3VL4 (antibody)
heavy: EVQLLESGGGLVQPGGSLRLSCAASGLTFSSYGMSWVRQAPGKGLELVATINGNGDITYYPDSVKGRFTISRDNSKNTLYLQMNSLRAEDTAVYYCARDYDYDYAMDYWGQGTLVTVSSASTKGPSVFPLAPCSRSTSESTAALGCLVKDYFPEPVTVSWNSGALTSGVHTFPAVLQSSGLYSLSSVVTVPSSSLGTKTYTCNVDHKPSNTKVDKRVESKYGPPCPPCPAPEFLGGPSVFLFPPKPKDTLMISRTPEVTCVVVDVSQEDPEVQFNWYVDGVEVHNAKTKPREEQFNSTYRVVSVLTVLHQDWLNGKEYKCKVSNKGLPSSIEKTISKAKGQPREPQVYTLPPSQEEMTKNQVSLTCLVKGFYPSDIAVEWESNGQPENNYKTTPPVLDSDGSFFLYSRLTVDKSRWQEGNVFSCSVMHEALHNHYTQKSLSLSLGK
light: DIQMTQSPSSLSASVGDRVTITCRASQDIINYLNWYQQKPGKTVKLLIYYTSRLHSGVPSRFSGSGSGTDYTLTISSLQPEDFATYFCQQGKTLPYTFGQGTKLEIKRTVAAPSVFIFPPSDEQLKSGTASVVCLLNNFYPREAKVQWKVDNALQSGNSQESVTEQDSKDSTYSLSSTLTLSKADYEKHKVYACEVTHQGLSSPVTKSFNRGEC
notes: as for B2
As to B3, the concentration giving a half-maximal response (EC50) in assay [14] was around 0.02 mg/L; in assay [15] it was around 1 mg/L.

B4: CD89/IgA blocking mouse anti-human CD89-specific antibody 30C7 (antibody, V domains shown)
VH: QVQLQQSGPELVRPGVSVKISCKGSGYTFTDYVMHWVKQSHAKSLEWIGVISTYSGNTNYNQKFKGKATMTVDKSSSTAYMELARLTSEDSAIYYCARESDGYYFDYWGQGTTLTVSS
VL: DIVMSQSPSSLAVSAGEKVTMSCKSSQSLLNSRTRKNYLAWYQQKPGQSPKLLIYWASTRESGVPDRFTGSGSGTDFTLTISSVQAEDLAVYYCKQSYNLMYTFGGGTKLEIK
Turning to B4, the binding result in assay [1] is “no binding (tested: 10 µg/mL)”; in assay [3], “no binding (tested: 10 µg/mL)”; in assay [4], “binds”; in [5], “binds”; in assay [6], “binds”; in assay [7], “binds”. In assay [2], the “EC50 (read off the curve)” value is around 0.4 mg/L. Besides, the “IC50 (read off the curve)” value in assay [16] was around 0.1 mg/L; in [19] it was around 1 mg/L; in assay [10], around 1 mg/L; in assay [13] it was around 0.6 mg/L. Further, in assay [17], the “% blocking of PE-A3 binding” value is below 25%. The “% blocking of PE-MIP8a binding” value in assay [9] is above 90%. Further, the “% blocking of PE-A59 binding” value in assay [18] is below 25%. The “IC50 (read off the bars), binding of granulocytes to plate-bound serum IgA [Donor 2]” value in assay [20] is around 0.6 mg/L. Besides, the EC50 in [11] stood at 0.029 mg/L; in [12], 0.484 mg/L.

Values taken from patent US20230242646A1 (JJP BIOLOGICS SP Z O O, published 2023).
